In article PMC7758071, “Calcium depletion challenges endoplasmic reticulum proteostasis by destabilising BiP-substrate complexes” (eLife, 2020) one finds binding result and koff data, which are given here for two molecules.

Series [1] deals with the molecule itself. The experiment in a line: crystal structure; BiP^T229A-V461F (28-549) at 150 µM with equimolar FICD^L258D-H363A and 175 µM ATP (FICD excluded from the crystals); apo: 20% PEG3350, 0.1 M Bis-Tris Propane pH 7.5, 0.2 M Na3Citrate; ADP-bound: 20% PEG3350, 0.2 M K3Citrate.
Series [2] deals with T1, human cytosolic Hsp70 (HSPA1A; UK2510; natural variant E110D) (human, UniProt P0DMV8 1-641, E110D).
T1 construct: human cytosolic Hsp70 (HSPA1A), natural variant E110D; source: E. coli BL21 T7 Express lysY/Iq, purified (Ni-NTA, Ulp1 cleavage, anion exchange); not shown: His6-Smt3, N-terminal, cleaved
The experiment in a line: BLI; as a7, but dissociation with Mg + Ca + ATP + ADP ([MgCl2]/[CaCl2]=3; [ATP]/[ADP]=2). To be noted: both partners purified. (In general: In BLI a coated tip is dipped into the sample, and binding shifts an interference pattern.)

In series [3] the target is T2, BiP from Drosophila melanogaster (UK2354) (Drosophila melanogaster, UniProt P29844 19-656).
T2 construct: BiP homologue of Drosophila melanogaster; the ER signal peptide is probably absent from the bacterial construct; also called dBiP; Drosophila BiP; source: E. coli BL21 T7 Express lysY/Iq, purified (Ni-NTA, Ulp1 cleavage, anion exchange); not shown: His6-Smt3, N-terminal, cleaved
Described as above. The conditions noted are these: both partners purified.

The target in series [4] is T3, BiP (Chinese hamster, wild type, UK173) (Chinese hamster, UniProt G3I8R9 19-654).
T3 construct: BiP (Grp78), the ER Hsp70 chaperone, Chinese hamster (Cricetulus griseus), wild type; called full-length BiP in the results; also called Grp78; mammalian BiP; source: E. coli M15, purified (Ni-NTA)
The series is described as above. The conditions noted are these: both partners purified.

The target of series [5] is T4, human Hsc70 (HSPA8; UK2511) (human, UniProt P11142 1-646).
T4 construct: human cytosolic Hsc70 (HSPA8); source: E. coli BL21 T7 Express lysY/Iq, purified (Ni-NTA, Ulp1 cleavage, anion exchange); not shown: His6-Smt3, N-terminal, cleaved
Described as above. To be noted: both partners purified.

Series [6] addresses T3, BiP (Chinese hamster, wild type, UK173). Kind of series: BLI; as a1, but association with Mg + Ca + ATP ([MgCl2]/[CaCl2]=3); dissociation with Mg + ATP. To be noted: both partners purified.
For series [7] the target is unchanged. Kind of series: BLI; streptavidin sensor with biotinylated ERdj6 J-domain (J) and biotinylated P15 co-immobilised; association: 5 µM Hsp70, 3 mM MgCl2, 1.5 mM ATP; dissociation in protein-free solution with Mg + ATP + ADP ([ATP]/[ADP]=2); 28°C; 50 mM HEPES-KOH pH 7.4, 100 mM KCl, 0.2 mM TCEP, 0.05% Triton X-100; one-phase decay fit. To be noted: both partners purified.

Series [8] shares this target. Kind of series: BLI; as a1, association with Mg + ATP; first dissociation step with Mg + ADP, then second dissociation step (the one fitted) with Mg + ATP. To be noted: both partners purified.
For series [9] the target is unchanged. Kind of series: BLI; as a1, but the non-functional H422Q J-domain (J^QPD) co-immobilised with P15; association with Mg + ATP; dissociation with Mg + ATP. To be noted: both partners purified.
Series [10] has the same target. The experiment in a line: BLI; as a1, association with Mg + ATP; dissociation with Mg + ADP. To be noted: both partners purified.
The target is the same in series [11]. The experiment in a line: BLI; streptavidin sensor with biotinylated ERdj6 J-domain (J) and biotinylated P15 co-immobilised; association: 5 µM BiP, MgCl2 + ATP; dissociation in protein-free solution with Mg + ATP; 28°C; 50 mM HEPES-KOH pH 7.4, 100 mM KCl, 0.2 mM TCEP, 0.05% Triton X-100; one-phase decay fit. The conditions noted are these: both partners purified.

The target in series [12] is T5, DnaK from Escherichia coli (UK2243) (Escherichia coli, UniProt P0A6Y8 1-638).
T5 construct: DnaK, the Hsp70 of Escherichia coli; also called bacterial DnaK; source: E. coli BL21 T7 Express lysY/Iq, purified (Ni-NTA, Ulp1 cleavage, anion exchange, second Ni-NTA); not shown: His6-Smt3, N-terminal, cleaved
The experiment in a line: BLI; streptavidin sensor with biotinylated J-domain of E. coli DnaJ (residues 1-72) and biotinylated P15 co-immobilised; association: 5 µM DnaK, 3 mM MgCl2, 1.5 mM ATP; dissociation in protein-free solution with Mg + ATP + ADP ([ATP]/[ADP]=2); 28°C; 50 mM HEPES-KOH pH 7.4, 100 mM KCl, 0.2 mM TCEP, 0.05% Triton X-100; one-phase decay fit. To be noted: both partners purified.

Series [13] has as its target T3, BiP (Chinese hamster, wild type, UK173). Kind of series: BLI; as a7, dissociation with Mg + ATP + ADP and Grp170 present in the dissociation step. The conditions noted are these: both partners purified.
Series [14] shares this target. Kind of series: BLI; streptavidin sensor with biotinylated ERdj6 J-domain (J) and biotinylated P15 co-immobilised; association: 5 µM Hsp70, 3 mM MgCl2, 1.5 mM ATP; dissociation in protein-free solution with Mg + ATP + ADP ([ATP]/[ADP]=2); 28°C; 50 mM HEPES-KOH pH 7.4, 100 mM KCl, 0.2 mM TCEP, 0.05% Triton X-100; one-phase decay fit. To be noted: both partners purified. The source holds these as a separate data set.

For series [15] the target is unchanged. Kind of series: BLI; as a7, but dissociation with Mg + Ca + ATP + ADP ([MgCl2]/[CaCl2]=3; [ATP]/[ADP]=2). The conditions noted are these: both partners purified. This is another data set of the same source.
For series [16], the target named is T5, DnaK from Escherichia coli (UK2243). Kind of series: BLI; as a14, but dissociation with Mg + Ca + ATP + ADP. To be noted: both partners purified.
The target of series [17] is T3, BiP (Chinese hamster, wild type, UK173). The experiment in a line: BLI; as a8, dissociation with Mg + Ca + ATP + ADP and Grp170 present in the dissociation step. The conditions noted are these: both partners purified.
For series [18] the target is unchanged. The experiment in a line: BLI; as a1, association with Mg + ATP; dissociation with Mg + Ca + ATP ([MgCl2]/[CaCl2]=3). The conditions noted are these: both partners purified.
Series [19] shares this target. The experiment in a line: BLI; as a1, but the non-functional H422Q J-domain (J^QPD) co-immobilised with P15; association with Mg + ATP; dissociation with Mg + ATP. The conditions noted are these: both partners purified. This is another data set of the same source.
Series [20] shares this target. The experiment in a line: BLI; as a1, association with Mg + ATP; dissociation (step 1) with Ca + ADP. The conditions noted are these: both partners purified.
For series [21], the target named is T1, human cytosolic Hsp70 (HSPA1A; UK2510; …). Kind of series: BLI; streptavidin sensor with biotinylated ERdj6 J-domain (J) and biotinylated P15 co-immobilised; association: 5 µM Hsp70, 3 mM MgCl2, 1.5 mM ATP; dissociation in protein-free solution with Mg + ATP + ADP ([ATP]/[ADP]=2); 28°C; 50 mM HEPES-KOH pH 7.4, 100 mM KCl, 0.2 mM TCEP, 0.05% Triton X-100; one-phase decay fit. The conditions noted are these: both partners purified.

The target in series [22] is T2, BiP from Drosophila melanogaster …. Described as above. To be noted: both partners purified.
For series [23], the target named is T3, BiP (Chinese hamster, wild type, UK173). The series is described as above. To be noted: both partners purified. This is another data set of the same source.
For series [24], the target named is T4, human Hsc70 (HSPA8; UK2511). The series is described as above. The conditions noted are these: both partners purified.
Series [25] deals with T3, BiP (Chinese hamster, wild type, UK173). Kind of series: BLI; as a1, association with Mg + ATP; dissociation with Ca + ATP (Ca2+ the only divalent cation). The conditions noted are these: both partners purified.
The target is the same in series [26]. Kind of series: BLI; as a1, association with Mg + ATP; first dissociation step with Ca + ADP, then second dissociation step (the one fitted) with Mg + ATP. The conditions noted are these: both partners purified.
The target is the same in series [27]. Kind of series: BLI; as a7, but dissociation with Mg + Ca + ATP + ADP ([MgCl2]/[CaCl2]=3; [ATP]/[ADP]=2). To be noted: both partners purified. This is another data set of the same source.

Values joined by “and” are separate entries in the source; they are usually repeats but may differ in a detail not shown here. Equal values may be shown once. Ends that are not written are not given here. * marks the point of attachment. Biotin = O=C1N[C@H]2[C@H](CS[C@H]2CCCCC(=O)*)N1

T3 sequence (G3I8R9 19-654): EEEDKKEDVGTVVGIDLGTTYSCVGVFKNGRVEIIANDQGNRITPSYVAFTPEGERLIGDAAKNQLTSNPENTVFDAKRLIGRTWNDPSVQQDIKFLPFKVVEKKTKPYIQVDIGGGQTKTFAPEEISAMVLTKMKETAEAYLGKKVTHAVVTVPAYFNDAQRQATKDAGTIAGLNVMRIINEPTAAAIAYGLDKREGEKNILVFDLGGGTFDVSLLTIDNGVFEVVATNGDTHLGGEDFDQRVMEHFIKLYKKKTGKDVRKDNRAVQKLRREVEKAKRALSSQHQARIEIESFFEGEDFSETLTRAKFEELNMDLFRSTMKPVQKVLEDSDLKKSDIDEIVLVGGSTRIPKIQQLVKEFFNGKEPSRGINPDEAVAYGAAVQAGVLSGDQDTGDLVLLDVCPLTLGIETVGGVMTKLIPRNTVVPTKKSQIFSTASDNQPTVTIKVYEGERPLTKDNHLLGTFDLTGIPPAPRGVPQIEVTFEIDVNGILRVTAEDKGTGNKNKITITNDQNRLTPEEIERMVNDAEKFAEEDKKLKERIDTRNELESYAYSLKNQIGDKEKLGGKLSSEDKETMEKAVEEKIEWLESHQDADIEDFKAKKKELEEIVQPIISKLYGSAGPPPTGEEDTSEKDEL
T5 sequence (P0A6Y8 whole entry): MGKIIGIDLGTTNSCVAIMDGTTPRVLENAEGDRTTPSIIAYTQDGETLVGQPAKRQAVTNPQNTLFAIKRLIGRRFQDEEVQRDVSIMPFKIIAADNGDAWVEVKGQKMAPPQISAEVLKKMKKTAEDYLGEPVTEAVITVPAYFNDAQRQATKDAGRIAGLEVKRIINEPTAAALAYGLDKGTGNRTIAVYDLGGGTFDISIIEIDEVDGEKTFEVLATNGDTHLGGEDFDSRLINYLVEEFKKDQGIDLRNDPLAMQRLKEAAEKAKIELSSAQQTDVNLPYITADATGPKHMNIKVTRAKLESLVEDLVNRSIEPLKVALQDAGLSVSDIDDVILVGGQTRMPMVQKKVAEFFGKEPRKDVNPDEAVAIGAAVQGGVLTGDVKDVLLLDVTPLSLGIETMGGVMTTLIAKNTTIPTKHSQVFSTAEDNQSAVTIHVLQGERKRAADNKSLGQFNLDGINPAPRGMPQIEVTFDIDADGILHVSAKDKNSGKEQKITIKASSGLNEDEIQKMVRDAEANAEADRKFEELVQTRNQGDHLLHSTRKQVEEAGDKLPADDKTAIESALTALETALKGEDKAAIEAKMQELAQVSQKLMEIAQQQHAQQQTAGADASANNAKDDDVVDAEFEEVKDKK
T1 sequence (P0DMV8 whole entry E110D): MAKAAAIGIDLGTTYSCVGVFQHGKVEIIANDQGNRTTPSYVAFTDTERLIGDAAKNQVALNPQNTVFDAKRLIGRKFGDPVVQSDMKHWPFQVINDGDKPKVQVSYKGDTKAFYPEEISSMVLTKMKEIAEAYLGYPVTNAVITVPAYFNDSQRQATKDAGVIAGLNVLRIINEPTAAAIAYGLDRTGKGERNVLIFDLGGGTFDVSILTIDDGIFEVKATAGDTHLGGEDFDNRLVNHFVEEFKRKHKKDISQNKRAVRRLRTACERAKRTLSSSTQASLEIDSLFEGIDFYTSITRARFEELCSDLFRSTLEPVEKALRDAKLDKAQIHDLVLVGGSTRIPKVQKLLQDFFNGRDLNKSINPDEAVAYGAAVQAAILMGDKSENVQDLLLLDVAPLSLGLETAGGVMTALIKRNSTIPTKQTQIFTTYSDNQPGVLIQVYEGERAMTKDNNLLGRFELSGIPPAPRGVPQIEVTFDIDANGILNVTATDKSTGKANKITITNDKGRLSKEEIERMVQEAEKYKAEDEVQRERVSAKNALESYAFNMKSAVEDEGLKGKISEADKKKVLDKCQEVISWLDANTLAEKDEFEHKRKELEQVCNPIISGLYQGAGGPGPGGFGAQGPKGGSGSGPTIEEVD
T2 sequence (P29844 19-656): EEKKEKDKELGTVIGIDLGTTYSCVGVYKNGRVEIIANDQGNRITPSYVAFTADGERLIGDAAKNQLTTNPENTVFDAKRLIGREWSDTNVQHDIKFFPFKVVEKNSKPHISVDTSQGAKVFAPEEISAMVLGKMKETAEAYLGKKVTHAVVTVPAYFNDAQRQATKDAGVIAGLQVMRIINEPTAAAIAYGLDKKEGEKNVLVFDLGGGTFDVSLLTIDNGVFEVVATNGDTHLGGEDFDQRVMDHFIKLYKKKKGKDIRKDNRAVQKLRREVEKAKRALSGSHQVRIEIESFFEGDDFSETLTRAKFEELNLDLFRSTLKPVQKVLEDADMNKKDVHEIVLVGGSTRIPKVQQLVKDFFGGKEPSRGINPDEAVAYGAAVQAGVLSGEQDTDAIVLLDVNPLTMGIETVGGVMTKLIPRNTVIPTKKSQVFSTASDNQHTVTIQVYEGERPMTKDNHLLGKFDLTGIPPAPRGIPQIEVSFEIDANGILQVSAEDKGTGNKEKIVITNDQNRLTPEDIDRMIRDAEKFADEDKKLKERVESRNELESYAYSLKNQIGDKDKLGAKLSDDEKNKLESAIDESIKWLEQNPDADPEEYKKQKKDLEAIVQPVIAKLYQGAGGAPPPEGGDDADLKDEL
T4 sequence (P11142 whole entry): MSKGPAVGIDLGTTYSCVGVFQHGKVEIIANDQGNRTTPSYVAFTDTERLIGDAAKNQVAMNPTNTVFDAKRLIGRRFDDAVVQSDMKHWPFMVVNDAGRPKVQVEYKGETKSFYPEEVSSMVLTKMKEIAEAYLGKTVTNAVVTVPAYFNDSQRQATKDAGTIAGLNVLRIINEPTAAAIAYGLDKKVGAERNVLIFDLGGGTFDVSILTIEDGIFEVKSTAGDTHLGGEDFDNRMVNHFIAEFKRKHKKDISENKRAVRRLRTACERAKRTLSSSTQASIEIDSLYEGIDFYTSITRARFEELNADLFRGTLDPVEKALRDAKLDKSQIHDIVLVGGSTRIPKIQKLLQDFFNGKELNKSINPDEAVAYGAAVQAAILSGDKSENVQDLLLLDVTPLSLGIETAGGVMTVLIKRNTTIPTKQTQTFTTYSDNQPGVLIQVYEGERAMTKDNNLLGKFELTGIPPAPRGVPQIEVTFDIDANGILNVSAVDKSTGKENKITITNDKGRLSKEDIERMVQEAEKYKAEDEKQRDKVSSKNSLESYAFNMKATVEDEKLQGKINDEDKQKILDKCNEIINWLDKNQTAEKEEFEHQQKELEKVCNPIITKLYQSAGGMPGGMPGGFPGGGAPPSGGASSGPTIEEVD

B1: Chinese hamster BiP^T229A-V461F (residues 28–549), lid-truncated (domain or fragment)
chain: not shown
notes: also called apo BiP oligomer; ADP BiP oligomer; source: E. coli M15, purified (as in Perera et al., 2019; anion exchange, gel filtration)
With B1, in [1], the binding result is listed as “binds”.

B2: P15 BiP substrate peptide (peptide)
peptide: ALLLSAPRRGAGKK(Biotin)
notes: substrate peptide P15 (Misselwitz et al., 1998); Held on streptavidin BLI sensors together with a biotinylated J-domain (ERdj6 residues 390-455, wild type or H422Q; for DnaK the J-domain of DnaJ, residues 1-72); source: synthetic peptide (custom synthesis, GenScript)
Broadly, the koff is the first-order rate constant of dissociation. Take B2: the off-rate (koff) in series [2] is 0.00171 s⁻¹ and 0.00178 s⁻¹ and 0.00164 s⁻¹; in series [3], 0.00384 s⁻¹ and 0.00414 s⁻¹ and 0.00359 s⁻¹ and 0.0038 s⁻¹; in series [4], 0.0025 s⁻¹ and 0.00254 s⁻¹ and 0.00241 s⁻¹ and 0.00255 s⁻¹; in series [5], 0.00336 s⁻¹ and 0.00333 s⁻¹ and 0.00344 s⁻¹ and 0.00318 s⁻¹; in [6], 0.00546 s⁻¹ and 0.00506 s⁻¹ and 0.00591 s⁻¹; in series [6] (mean) it was 0.00547 s⁻¹. In addition, the koff in series [7] was 0.00421 s⁻¹ and 0.00438 s⁻¹ and 0.00441 s⁻¹; in [7] (mean), 0.00433 s⁻¹; in series [8] it was 0.00684 s⁻¹ and 0.00682 s⁻¹ and 0.00672 s⁻¹; in [8] (mean) it was 0.00679 s⁻¹; in series [9] it was 0.00203 s⁻¹ and 0.000861 s⁻¹ and 0.000902 s⁻¹; in series [9] (mean), 0.00127 s⁻¹. The off-rate (koff) is 0.00145 s⁻¹ (2×) and 0.00148 s⁻¹ in series [10]; 0.00146 s⁻¹ in [10] (mean); 0.00583 s⁻¹ and 0.00632 s⁻¹ and 0.00607 s⁻¹ in series [11]; 0.00607 s⁻¹ in [11] (mean); 0.00693 s⁻¹ and 0.00776 s⁻¹ and 0.00549 s⁻¹ and 0.00673 s⁻¹ in [12]; 0.0103 s⁻¹ and 0.00955 s⁻¹ and 0.00937 s⁻¹ in [13]. The koff was 0.00974 s⁻¹ in [13] (mean); 0.00434 s⁻¹ (2×) and 0.00424 s⁻¹ in [14]; 0.00431 s⁻¹ in [14] (mean); 0.00239 s⁻¹ and 0.00247 s⁻¹ and 0.00254 s⁻¹ in [15]; 0.00247 s⁻¹ in series [15] (mean); 0.00636 s⁻¹ and 0.00686 s⁻¹ and 0.00525 s⁻¹ and 0.00615 s⁻¹ in series [16]. For the same molecule, the koff is 0.00682 s⁻¹ and 0.00595 s⁻¹ and 0.00602 s⁻¹ in [17]; 0.00626 s⁻¹ in series [17] (mean); 0.00575 s⁻¹ and 0.00678 s⁻¹ and 0.00573 s⁻¹ in series [18]; 0.00609 s⁻¹ in series [18] (mean); 0.00101 s⁻¹ and 0.000958 s⁻¹ and 0.00117 s⁻¹ in [19]; 0.00105 s⁻¹ in series [19] (mean). Also, the koff was 0.00121 s⁻¹ and 0.0012 s⁻¹ and 0.00122 s⁻¹ in series [20]; 0.00121 s⁻¹ in series [20] (mean); 0.00203 s⁻¹ and 0.00225 s⁻¹ and 0.00198 s⁻¹ and 0.00185 s⁻¹ in [21]; 0.00811 s⁻¹ and 0.00832 s⁻¹ and 0.00795 s⁻¹ and 0.00806 s⁻¹ in series [22]; 0.00441 s⁻¹ and 0.00438 s⁻¹ and 0.00434 s⁻¹ and 0.00453 s⁻¹ in series [23]; 0.00395 s⁻¹ and 0.00411 s⁻¹ and 0.00394 s⁻¹ and 0.0038 s⁻¹ in [24]. For the same molecule, the off-rate (koff) in [25] was 0.0074 s⁻¹ and 0.00639 s⁻¹ and 0.00848 s⁻¹; in series [25] (mean), 0.00742 s⁻¹; in [26], 0.00294 s⁻¹ and 0.00337 s⁻¹ and 0.00333 s⁻¹; in [26] (mean), 0.00321 s⁻¹; in series [27], 0.0025 s⁻¹ and 0.0024 s⁻¹ and 0.00243 s⁻¹; in [27] (mean), 0.00244 s⁻¹.
